# Patent US20090111753A1, “Nogo-A Polypeptide Fragments, Variant Nogo Receptor-1 Polypeptides, and Uses Thereof” (Yale University, priority 2004, published 2009)
# T1: NgR (Homo sapiens, UniProt Q9BZR6)
# T1 construct: expressed in transfected cells; host or cells: COS-7
# T1 sequence (Q9BZR6 27-447): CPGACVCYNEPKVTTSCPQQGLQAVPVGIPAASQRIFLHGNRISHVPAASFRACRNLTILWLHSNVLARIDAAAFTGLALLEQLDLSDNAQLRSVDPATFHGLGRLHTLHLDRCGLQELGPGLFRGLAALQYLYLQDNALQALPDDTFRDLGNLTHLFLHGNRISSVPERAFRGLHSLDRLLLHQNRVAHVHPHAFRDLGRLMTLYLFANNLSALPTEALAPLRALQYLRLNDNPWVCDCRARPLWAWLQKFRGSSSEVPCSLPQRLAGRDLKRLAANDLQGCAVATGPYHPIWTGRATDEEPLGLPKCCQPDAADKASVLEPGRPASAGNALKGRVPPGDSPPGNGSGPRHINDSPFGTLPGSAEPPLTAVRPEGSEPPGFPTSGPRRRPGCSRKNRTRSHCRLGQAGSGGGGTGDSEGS
# How the values were obtained:
# COS-7 cells = assay: Fibroblast spreading assay on dried GST fusion protein; assay type: cell-based; conditions: GST fusion protein presented as dried substrate
# Procedure: FIG. 2A. Effects of Amino-Nogo fragments on fibroblast spreading and neurite outgrowth. Different effects of Amino-Nogo fragments on fibroblast spreading. COS-7 cells were allowed to attach and spread on slides with spots coated with 50 ng of dried GST fusion protein as indicated and stained for F-actin. GST-A: fusion protein of GST and A fragment (FIG. 1) of Amino-Nogo. GST-A, GST-B, GST-Δ20, GST-B4 and GST-B4C: fusion protein of GST and A, B, Δ20, B4 or B4C fragment (FIG. 1) of Amino-Nogo, respectively.
# FIG. 2B. COS-7 cell area for experiments as in (A) was measured and plotted.
# FIG. 2C. COS-7 cells were allowed to attach and spread on 96 well dishes coated with dried GST fusion proteins as indicated. Number of attached cells were counted and plotted as a function of the amount of various proteins dried per well in a 96 well dish.
# It has been recognized that the Amino-Nogo-A protein inhibits non-neuronal cell spreading and axonal outgrowth when the protein is substrate bound (Chen, M. S., et al., Nature 403:434-439 (2000); Fournier, A. E., et al., Nature 409:341-346 (2001)). […] The later domain has been termed Δ20. To determine whether the NgR-interacting aa of Amino-Nogo-A described in Example 1 regulate cell spreading and axonal outgrowth, various fragments were expressed as GST fusion proteins and purified from E. coli. To generate GST fusion proteins, amino Nogo fragments were cloned in pGEX2T (Amersham Pharmacia). Native and soluble GST fusion proteins were expressed and purified as described (GrandPre, T., et al., Nature 403:439-444 (2000)). COS-7 binding assays were done as described (Fournier, A. E., et al., Nature 409:341-346 (2001)). Bound AP to COS-7 cells was measured using NIH image software. Fibroblast spreading and cDRG outgrowth assay were done as described (Fournier, A. E., et al., Nature 409:341-346 (2001)) with some modifications. Briefly, 50 μl of purified GST fusion protein or peptides diluted in PBS was pipetted into polylysine precoated 96 well plates (Becton Dickson Biocoat plates) and dried overnight at room temperature. […]
# E13 chick DRG neurons = assay: cDRG neurite outgrowth assay; assay type: cell-based; conditions: substrate coated with GST fusion protein
# Procedure: FIG. 2D. Differential effects of Amino-Nogo fragments on neurite outgrowth. Dissociated neurons from E13 chick DRGs were plated on 96 well dishes coated with lpmol protein per well and stained for neurofilament localization.
# FIG. 2E. Neurite length per neuron were measured and plotted as percentage of PBS control with increasing concentration of dried protein for experiment described in […].
# FIG. 6C. B24/32 peptide inhibits neurite outgrowth. Dissociated neurons from E13 chick DRG were plated onto 96 well dishes coated with 500 pmol of dried peptides as indicated and stained for neurofilament localization.
# FIG. 6D. Neurite length per neuron was measured and plotted as percentage of PBS control for experiments as in (C).
# (§1) It has been recognized that the Amino-Nogo-A protein inhibits non-neuronal cell spreading and axonal outgrowth when the protein is substrate bound (Chen, M. S., et al., Nature 403:434-439 (2000); Fournier, A. E., et al., Nature 409:341-346 (2001)). […] The later domain has been termed Δ20. To determine whether the NgR-interacting aa of Amino-Nogo-A described in Example 1 regulate cell spreading and axonal outgrowth, various fragments were expressed as GST fusion proteins and purified from E. coli. To generate GST fusion proteins, amino Nogo fragments were cloned in pGEX2T (Amersham Pharmacia). Native and soluble GST fusion proteins were expressed and purified as described (GrandPre, T., et al., Nature 403:439-444 (2000)). COS-7 binding assays were done as described (Fournier, A. E., et al., Nature 409:341-346 (2001)). Bound AP to COS-7 cells was measured using NIH image software. Fibroblast spreading and cDRG outgrowth assay were done as described (Fournier, A. E., et al., Nature 409:341-346 (2001)) with some modifications. Briefly, 50 μl of purified GST fusion protein or peptides diluted in PBS was pipetted into polylysine precoated 96 well plates (Becton Dickson Biocoat plates) and dried overnight at room temperature. For fibroblast spreading assay, subconfluent COS-7 cells were then plated for 1 hour in serum containing medium before fixation and staining with rho damine-phalloidin.
# The same GST-Amino-Nogo proteins were tested for their ability to reduce neurite outgrowth from chick E13 DRG neurons. For cDRG outgrowth assay, dissociated E13 cDRG neurons were plated for 6 hours before fixation. […] Cell area, number of attached cells and neurite length were measured using the Imageexpress machine and software (Axon Instrument).
# We reasoned that fusing the 24 aa segment of Amino-Nogo-A to NEP32 antagonist peptide might create a high affinity antagonist with a potency similar to the binding of AP-B4C-66 to NgR. […] Cell area, number of attached cells and neurite length were measured using the linageexpress machine and software (Axon Instrument).
# NgR = target: T1, NgR; assay: AP fusion protein binding to NgR expressing COS-7 cells; conditions: AP fused Amino-Nogo fragments in conditioned media on NgR expressing COS-7 cells; 'No binding at' cells continue on the next line: AmNg A 150 nM; a.a. 1000-1018, a.a. 1005-1018, Amino of NgC 25 nM; a.a. 950-1004 50 nM; Amino of NgB 100 nM
# Excerpt: Several alkaline phosphatase (AP) fusion proteins containing various Nogo-A segments derived from regions between the amino terminus and the first hydrophobic segment were examined to identify the mechanism of Amino-Nogo-A action. To generate additional AP fusion proteins, human amino Nogo fragments were amplified and ligated to the pcAP6 vector digested with restriction enzymes EcoRI and XhoI as described (Fournier, A. E., et al., Nature 409:341-346 (2001)). Plasmids were then transfected into HEK293T cells and conditioned media were collected after 7 days. None of these fragments bind with high affinity to non-transfected COS-7 cells. […] This binding is saturable with a Kd indistinguishable from that for AP-Nogo-66 association with NgR (Table I). To better define the region responsible for Amino-Nogo interaction with NgR, a range of truncation mutants of Amino-Nogo were examined as AP fusion proteins. […] In fact, the NgR-interacting segment of Amino-Nogo is fully accounted for in the extreme carboxyl 24 amino acids (aa 995-1018, Amino-Nogo-A-24) (Table I and FIG. 1D). […] We named this domain (aa 995-1013) as Amino-Nogo-A-19.
# Binding Kds for AP fused Amino-Nogo fragments were measured by applying conditioned media containing AP fusion protein to NgR expressing COS-7 cells. Bound AP was stained and measured.
# as §1
# NgR mutants = assay: AP fusion protein binding to COS-7 cells expressing NgR deletion mutants; conditions: COS-7 cells expressing NgR mutants; FIG. 3A
# Excerpt: FIG. 3A. Binding of Amino-Nogo to NgR requires LRR repeats. Binding of AP or AP fused Nogo fragments to COS-7 cells expressing NgR mutants as indicated. AP-B and AP-B4: AP fusion protein of B or B4 fragment of Amino-Nogo. Surface expression of NgR mutants was detected using anti-Myc antibodies.
# Similarly, the cysteine rich LRR-NT and LRR-CT capping domains are essential for Amino-Nogo-B4C binding. […] NgR is part of gene family that includes NgR2 and NgR3. […] By these measures, the NgR requirements for Nogo-66 and Amino-Nogo-B4C binding are indistinguishable.
molecule,measurement,setting,value
"B4C: fusion protein of GST and B4C fragment (carboxyl terminal 75 aa) of Amino-Nogo (protein, left off: large carriers, fusion protein of GST and B4C fragment (carboxyl terminal 75 aa) of Amino-Nogo) LLPPDVSALATQAEIESIVKPKVLVKEAEKKLPSDTEKEDRSPSAIFSAELSKTSVVDLLYWRDIKKTG",COS-7 cell attachment and spreading,COS-7 cells,do not alter COS-7 morphology
same,neurite outgrowth from chick E13 DRG neurons,E13 chick DRG neurons,not inhibitory for axonal growth
"a.a. 950-1018 (AmNg B4C): AP fusion protein of Amino-Nogo fragment B4C, aa 950-1018 (protein, left off: large carriers) LLPPDVSALATQAEIESIVKPKVLVKEAEKKLPSDTEKEDRSPSAIFSAELSKTSVVDLLYWRDIKKTG",Kd,NgR,3.51 ± 3.36 nM
same,binding to NgR with deletion of the CT domain,NgR mutants,did not alter
same,binding to NgR with deletions of any two LRRs,NgR mutants,eliminated binding
same,requirement of LRR-NT and LRR-CT capping domains of NgR for binding,NgR mutants,essential
